Laboratory results: patent US20190185581A1 (University of California, published 2019)

How the values were obtained:
[1] = molecular target: T1, catalytic domain of MMP-14 (cdMMP-14) (human, UniProt P50281 114-287, limits assumed, biotinylated (Sulfo-NHS-LC-Biotin) where immobilised via streptavidin); test: cell-based or functional assay
[2] = molecular target: T1, catalytic domain of MMP-14 (cdMMP-14); test: ELISA, Fab titrated on immobilised MMP-14 catalytic domain, anti-Fab-HRP
Procedure: Bound Fabs were detected using the anti-Fab-HRP conjugate. The half-maximal effective concentration (EC₅₀) was calculated from a four-parametric logistic curve-fitting analysis.

[3] = molecular target: T2, catalytic domain of MMP-9 (cdMMP-9) (human, UniProt P14780 107-443, limits assumed); test: competitive ELISA: Fab R2C5 at its IC50 concentration pre-incubated with soluble cdMMP-9, then added to a plate coated with 100 nM cdMMP-14; anti-Fab-HRP
T2 sequence: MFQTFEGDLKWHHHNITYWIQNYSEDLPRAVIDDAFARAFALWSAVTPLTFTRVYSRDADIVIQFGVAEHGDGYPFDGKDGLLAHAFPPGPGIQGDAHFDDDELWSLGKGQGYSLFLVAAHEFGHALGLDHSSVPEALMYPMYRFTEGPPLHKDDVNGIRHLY

[4] = molecular target: T1, catalytic domain of MMP-14 (cdMMP-14); test: ELISA, Fab titrated on immobilised biotin-cdMMP-14, anti-Fab-HRP
[5] = molecular target: T1, catalytic domain of MMP-14 (cdMMP-14); test: cell-based or functional assay; remark: listed apart in the source
[6] = molecular target: T1, catalytic domain of MMP-14 (cdMMP-14); test: competitive ELISA: serially diluted n-TIMP-2 with Fab 3A2 fixed at 10 nM on biotinylated cdMMP-14 on streptavidin wells; bound Fab detected with anti-Fab-HRP; competitor: Fab 3A2
[7] = molecular target: T1, catalytic domain of MMP-14 (cdMMP-14); test: cell-based or functional assay; remark: listed apart in the source
[8] = molecular target: T2, catalytic domain of MMP-9 (cdMMP-9); test: ELISA, purified Fab at 50, 100, 250 and 500 nM on immobilised MMP catalytic domain, anti-Fab-HRP, OD450
[9] = molecular target: catalytic domain of MMP-2 (human, UniProt P08253 115-449, limits assumed, biotinylated (Sulfo-NHS-LC-Biotin)); test: as above
catalytic domain of MMP-2, sequence (P08253 other isoform, or with tags, fused parts or gaps limits assumed): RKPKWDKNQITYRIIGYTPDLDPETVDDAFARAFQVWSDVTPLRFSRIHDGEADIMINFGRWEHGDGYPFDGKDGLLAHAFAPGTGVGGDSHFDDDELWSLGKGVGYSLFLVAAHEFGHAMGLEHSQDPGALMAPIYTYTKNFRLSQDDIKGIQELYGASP

Fab 3A2 = molecular target: T3, Fab 3A2; test: competitive ELISA: 10 nM Fab 3A2 pre-incubated with soluble MMP-14 (WT or mutant), then captured on immobilised wild-type MMP-14; anti-Fab-HRP
T3 construct: also called R3C9; not shown: His tag at the C-terminus of the heavy chain

B1: Fab 32D1 (Fab, V domains shown)
VH: EVQLVESGGGLVQPGGSLRLSCAASGFNLYYSYMHWVRQAPGKGLEWVASISPYSGYTYYADSVKGRFTISADTSKNTAYLQMNSLRAEDTAVYYCARMSLHRNFNQQGRSRLLGRMPRTYGMDYWGQGTLVTVSS
VL: DIQMTQSPSSLSASVGDRVTITCRASQSVSSAVAWYQQKPGKAPKLLIYSASSLYSGVPSRFSGSRSGTDFTLTISSLQPEDFATYYCQQYYSLITFGQGTKVEIKR
notes: not shown: His tag at the C-terminus of the heavy chain
[1]
  IC50 by FRET Assay: 4200 nM
[2]
  EC50: 350 nM

B2: Fab R2C5 (Fab, V domains shown)
VH: EVQLVESGGGLVQPGGSLRLSCAASGFNLSSYYMHWVRQAPGKGLEWVASIYPYSSYTSYADSVKGRFTISADTSKNTAYLQMNSLRAEDTAVYYCARIMKIKRNSLKFRGFVPLQMQYVMDYWGQGTLVTVSS
VL: DIQMTQSPSSLSASVGDRVTITCRASQSVSSAVAWYQQKPGKAPKLLIYSASSLYSGVPSRFSGSRSGTDFTLTISSLQPEDFATYYCQQSYGLFTFGQGTKVEIKR
[3]
  binding result: no binding (tested: about 4000 nM (log10(nM) about 3.6))
[4]
  EC50: 375 nM
[5]
  Inhibition potency (FRET IC50): 50 nM

B3: Fab 33C4 (Fab, V domains shown)
VH: EVQLVESGGGLVQPGGSLRLSCAASGFNLYSSSMHWVRQAPGKGLEWVASIYPYYGYTYYADSVKGRFTISADTSKNTAYLQMNSLRAEDTAVYYCARPTTSRVNKKLFRVSVLHPGSYGMDYWGQGTLVTVSS
VL: DIQMTQSPSSLSASVGDRVTITCRASQSVSSAVAWYQQKPGKAPKLLIYSASSLYSGVPSRFSGSRSGTDFTLTISSLQPEDFATYYCQQASYLITFGQGTKVEIKR
notes: also called R2C3; not shown: His tag at the C-terminus of the heavy chain
[1]
  IC50 by FRET Assay: 4600 nM
[2]
  EC50: 220 nM
[4]
  EC50: 220 nM
[5]
  Inhibition potency (FRET IC50): 4600 nM

B4: N-terminal inhibitory domain of tissue inhibitor of metalloproteinase-2 (n-TIMP-2) (other, UniProt P16035 27-153, looked up)
chain: CSCSPVHPQQAFCNADVVIRAKAVSEKEVDSGNDIYGNPIKRIQYEIKQIKMFKGPEKDIEFIYTAPSSAVCGVSLDVGGKKEYLIAGKAEGDGKMHITLCDFIVPWDTLSTTQKKSLNHRYQMGCE
notes: domain: N-terminal domain
[6]
  IC50 (read off the curve): ~30 nM
[7]
  inhibitory IC50 (FRET peptide substrate): 5.1 nM

B5: Fab 2B5 (Fab, V domains shown)
VH: EVQLVESGGGLVQPGGSLRLSCAASGFNLSYSSMHWVRQAPGKGLEWVASIYPYSGYTYYADSVKGRFTISADTSKNTAYLQMNSLRAEDTAVYYCARIGVNAWAVKMSQRMLATRGSGWYVMDYWGQGTLVTVSS
VL: DIQMTQSPSSLSASVGDRVTITCRASQSVSSAVAWYQQKPGKAPKLLIYSASSLYSGVPSRFSGSRSGTDFTLTISSLQPEDFATYYCQQSSSYPYSPITFGQGTKVEIKR
notes: as for B1
[1]
  IC50 by FRET Assay: 240 nM
[2]
  EC50: 24 nM
[8]
  binding result: no binding (tested: 500 nM)
[9]
  binding result: no binding (tested: 500 nM)

B6: Fab 3G9 (Fab, V domains shown)
VH: EVQLVESGGGLVQPGGSLRLSCAASGFNIYYSSIHWVRQAPGKGLEWVASIYSYSGYTYYADSVKGRFTISADTSKNTAYLQMNSLRAEDTAVYYCARATNEKFRRKSLQVRLLMRSWLAYAMDYWGQGTLVTVSS
VL: DIQMTQSPSSLSASVGDRVTITCRASQSVSSAVAWYQQKPGKAPKLLIYSASSLYSGVPSRFSGSRSGTDFTLTISSLQPEDFATYYCQQASYAASALITFGQGTKVEIKR
notes: as for B1
[1]
  IC50 by FRET Assay: 390 nM
[2]
  EC50: 160 nM

B7: Fab 3F3 (Fab, V domains shown)
VH: EVQLVESGGGLVQPGGSLRLSCAASGFNIYSSSMHWVRQAPGKGLEWVAYIYPYSGYTYYADSVKGRFTISADTSKNTAYLQMNSLRAEDTAVYYCARLYNGWLMVEGIGSAREGPTWYAMDYWGQGTLVTVSS
VL: DIQMTQSPSSLSASVGDRVTITCRASQSVSSAVAWYQQKPGKAPKLLIYSASSLYSGVPSRFSGSRSGTDFTLTISSLQPEDFATYYCQQGGVYAAHPFTFGQGTKVEIKR
notes: also called R2C13; not shown: His tag at the C-terminus of the heavy chain
[1]
  IC50 by FRET Assay: 970 nM
[2]
  EC50: 34 nM
[4]
  EC50: 34 nM
[5]
  Inhibition potency (FRET IC50): 970 nM

B8: MMP-14 catalytic domain mutant F198A (enzyme)
chain: not shown
Fab 3A2
  IC50 (read off the curve): ~100 nM

B9: MMP-14 catalytic domain mutant Y203A (enzyme)
chain: not shown
Fab 3A2
  IC50 (read off the curve): ~100 nM

B10: MMP-14 catalytic domain mutant T190A (enzyme)
chain: not shown
Fab 3A2
  IC50 (read off the curve): ~100 nM

B11: MMP-14 catalytic domain mutant F204A (enzyme)
chain: not shown
Fab 3A2
  binding result: binds

B12: MMP-14 catalytic domain mutant N231A (enzyme)
chain: not shown
Fab 3A2
  binding result: binds

B13: Fab 3E9 (Fab, V domains shown)
VH: EVQLVESGGGLVQPGGSLRLSCAASGFNLYYSSMHWVRQAPGKGLEWVASIYPSYGSTYYADSVKGRFTISADTSKNTAYLQMNSLRAEDTAVYYCARNGRYPGFLKRAHKRLLNFKAYVMDYWGQGTLVTVSS
VL: DIQMTQSPSSLSASVGDRVTITCRASQSVSSAVAWYQQKPGKAPKLLIYSASSLYSGVPSRFSGSRSGTDFTLTISSLQPEDFATYYCQQGSWYLITFGQGTKVEIKR
notes: as for B1
[1]
  IC50 by FRET Assay: 6000 nM
[2]
  EC50: 51 nM

B14: Fab 3E2 (Fab, V domains shown)
VH: EVQLVESGGGLVQPGGSLRLSCAASGFNIYYYSIHWVRQAPGKGLEWVASIYPYSSYTYYADSVKGRFTISADTSKNTAYLQMNSLRAEDTAVYYCARGIKGLVFTGSQMKMLRRGNYNWYVMDYWGQGTLVTVSS
VL: DIQMTQSPSSLSASVGDRVTITCRASQSVSSAVAWYQQKPGKAPKLLIYSASSLYSGVPSRFSGSRSGTDFTLTISSLQPEDFATYYCQQSSYSLITFGQGTKVEIKR
notes: as for B1
[1]
  IC50 by FRET Assay: 42 nM
[2]
  EC50: 47 nM
[8]
  binding result: no binding (tested: 500 nM)
[9]
  binding result: no binding (tested: 500 nM)

B15: Fab 32C2 (Fab, V domains shown)
VH: EVQLVESGGGLVQPGGSLRLSCAASGFNLYYYSMHWVRQAPGKGLEWVAYISPYSSSTYYADSVKGRFTISADTSKNTAYLQMNSLRAEDTAVYYCARSQHAKKSTIIRMLEHQSRSGMQYVMDYWGQGTLVTVSS
VL: DIQMTQSPSSLSASVGDRVTITCRASQSVSSAVAWYQQKPGKAPKLLIYSASSLYSGVPSRFSGSRSGTDFTLTISSLQPEDFATYYCQQSSYSLITFGQGTKVEIKR
notes: as for B1
[1]
  IC50 by FRET Assay: 8000 nM
[2]
  EC50: 150 nM

B16: Fab 3D9 (Fab, V domains shown)
VH: EVQLVESGGGLVQPGGSLRLSCAASGFNIYSSSIHWVRQAPGKGLEWVASIYSSYGYTYYADSVKGRFTISADTSKNTAYLQMNSLRAEDTAVYYCARRLMAYHGSCSSRLCQTAISPQRYAMDYWGQGTLVTVSS
VL: DIQMTQSPSSLSASVGDRVTITCRASQSVSSAVAWYQQKPGKAPKLLIYSASSLYSGVPSRFSGSRSGTDFTLTISSLQPEDFATYYCQQSSYSLITFGQGTKVEIKR
notes: as for B1
[1]
  IC50 by FRET Assay: 61 nM
[2]
  EC50: 6.4 nM
[7]
  IC50 of inhibition at neutral pH 7.5: 65 nM
  IC50 of inhibition at pH 6.5: 10.5 nM
  IC50 of inhibition at pH 8.5: 157 nM
[8]
  binding result: no binding (tested: 500 nM)
[9]
  binding result: no binding (tested: 500 nM)

B17: Fab 33D4 (Fab, V domains shown)
VH: EVQLVESGGGLVQPGGSLRLSCAASGFNIYYSSMHWVRQAPGKGLEWVASISPYSGSTYYADSVKGRFTISADTSKNTAYLQMNSLRAEDTAVYYCARSVHMKLSNKILSGWSWNNSFYAMDYWGQGTLVTVSS
VL: DIQMTQSPSSLSASVGDRVTITCRASQSVSSAVAWYQQKPGKAPKLLIYSASSLYSGVPSRFSGSRSGTDFTLTISSLQPEDFATYYCQQSSYSLITFGQGTKVEIKR
notes: also called R2C15; not shown: His tag at the C-terminus of the heavy chain
[1]
  IC50 by FRET Assay: 3900 nM
[2]
  EC50: 460 nM
[4]
  EC50: 460 nM
[5]
  Inhibition potency (FRET IC50): 3900 nM
